Biological target: DLL3 (target in the Fab-Zap internalization assay) (UniProt Q9NYJ7)
Test: cell-based or functional assay

DLL3 (target in the Fab-Zap internalization assay), sequence (Q9NYJ7 27-618 limits assumed): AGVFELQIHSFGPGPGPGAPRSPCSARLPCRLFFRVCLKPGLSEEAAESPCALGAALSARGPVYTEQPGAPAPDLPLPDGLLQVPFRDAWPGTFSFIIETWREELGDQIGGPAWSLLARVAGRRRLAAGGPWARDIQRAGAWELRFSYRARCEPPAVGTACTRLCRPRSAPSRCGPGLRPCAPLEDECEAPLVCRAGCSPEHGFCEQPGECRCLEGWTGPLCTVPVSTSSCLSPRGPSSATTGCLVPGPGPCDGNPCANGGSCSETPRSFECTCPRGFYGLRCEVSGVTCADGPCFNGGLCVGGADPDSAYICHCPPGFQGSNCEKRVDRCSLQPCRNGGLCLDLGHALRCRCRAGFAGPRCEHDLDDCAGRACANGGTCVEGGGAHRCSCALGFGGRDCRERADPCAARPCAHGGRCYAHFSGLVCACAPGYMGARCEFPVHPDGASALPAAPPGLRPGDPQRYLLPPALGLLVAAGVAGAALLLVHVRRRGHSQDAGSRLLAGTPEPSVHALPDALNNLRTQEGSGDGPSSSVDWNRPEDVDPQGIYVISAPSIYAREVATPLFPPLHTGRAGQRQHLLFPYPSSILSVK

Rovalpituzumab Tesirine (SC16LD6.5) (antibody)
Percent Max Killing (Fab-Zap internalization assay, 10 ug/ml): 96%
